In US20210079074A1 (Alector, published 2021):
Read-outs that look alike come from different tables or passages of the source.

Tests used:
[1] = molecular target: T1, recombinant MS4A4A soluble polypeptide JS1; experiment: ELISA, 1 ug/ml antibody
T1 construct: also called JS1.His; loop grafted antigen
Procedure: (§1) Anti-MS4A4A antibodies of the present disclosure were tested for their ability to bind to the different recombinant MS4A4A soluble polypeptides, as described in Example 2, as follows. Nucleic acid encoding the VH and VL domains of humanized anti-MS4A4A antibodies of the present disclosure were cloned into pcDNA3.4 vector which contains either the human IgG1 heavy chain constant domain or human kappa constant domain. The humanized anti-MS4A4A antibodies were expressed in Expi293 cells and were purified by Mab select antibody purification resin (GE Healthcare Life Science, cat#17519902) following the manufacture's protocol. ELISA was performed to measure binding of anti-MS4A4A antibodies of the present disclosure the recombinant MS4A4A soluble polypeptides. 1 μg/ml biotinylated antigens were preincubated on the streptavidin-coated ELISA plates (Thermo Scientific, cat#PI15120) for 1 hour. Plates were washed 3 times, followed by the addition of antibodies (1 μg/ml, 0.33 μg/ml, and 0.11 μg/ml antibodies. Plates were incubated at room temperature with shaking for 1 hr, washed 3 times, then 1/2500 dilution of HRP conjugates goat anti human kappa antibodies added (SigmaAldrich cat#. A7164-1ML).

human MS4A4A [2] = molecular target: T2, human MS4A4A (human, UniProt Q96JQ5 1-239); experiment: FACS, U937-huMS4A4A, 5 ug/ml
Procedure: (§2) Anti-MS4A4A antibodies tested were either mouse IgGs purified from hybridoma supernatant or human IgG1 Fc chimeras produced recombinantly in Expi293 cells. Affinity binding to cells was determined as follows. Briefly, cells were harvested, washed, and labeled with Aqua Live/Dead for viability discrimination. After a wash with PBS, 2×10\hat{ }4 cells were aliquoted per well in 96-well U-bottom plates and incubated with 50 μL of purified anti-MS4A4A antibody at various concentrations (3× dilutions starting at 10 μg/mL) in FACS buffer (PBS+2% FBS+1 mM EDTA). After this primary incubation, the supernatant was removed via centrifugation, washed 2× with 150 μL of ice-cold FACS buffer, and incubated with the appropriate secondary antibody on ice for 15 minutes. Following the secondary antibody incubation, the cells were again washed 2× with ice-cold FACS buffer and resuspended in a final volume of 200 μL of FACS buffer. Flow cytometry analysis was performed on a FACSCanto system (BD Biosciences). Binding data was expressed as Median Fluorescent Intensity (MFI).
(§3) These experiments were performed using anti-MS4A4A antibodies at a concentration of 5 μg/ml and were assayed for cell binding by flow cytometry.

[3] = molecular target: T3, recombinant MS4A4A soluble polypeptide JS5; experiment: ELISA, 1 ug/ml antibody
T3 construct: also called JS5.His
Procedure: as §1

[4] = molecular target: T3, recombinant MS4A4A soluble polypeptide …; experiment: ELISA, 0.11 ug/ml antibody
Procedure: as §1

[5] = molecular target: T3, recombinant MS4A4A soluble polypeptide …; experiment: ELISA, 0.33 ug/ml antibody
Procedure: as §1

human MS4A4A [6] = molecular target: T2, human MS4A4A; experiment: FACS, U937-huMS4A4A, 5 ug/ml; remark: listed apart in the source
Procedure: as §2, §3

Binder | OD450 [1] | MFI (human MS4A4A [2]) | ELISA OD [3] | ELISA OD [4] | ELISA OD [5] | MFI (human MS4A4A [6])
anti-MS4A4A antibody 4A-348 (antibody, human IgG1, V domains shown, humanized 4A-21; human IgG1/kappa) VH: QIQLVQSGAEVKKPGASVKVSCKASGYIFTSYGLSWVRQAPGQGLEWMGWINTYSGVPTYAQKFQGRVTMTRDTSTSTVYMELSSLRSEDTAVYYCARSLVDYWGQGTLVTVSS VL: DIVMTQTPLSLSVTPGQPASISCKSSQSLLYSDGKTYLSWYLQKPGQPPQLLIYLVSKLDSGVPDRFSGSGSGTDFTLKISRVEAEDVGVYYCWQGIDFHQTFGGGTKVEIK | 0.131 | 47.8 | – | – | – | –
anti-MS4A4A antibody 4A-349 (antibody, human IgG1, V domains shown, humanized 4A-21; human IgG1/kappa) VH: QIQLVQSGAEVKKPGASVKVSCKASGYIFTSYGLSWVRQAPGQGLEWMGWINTYSGVPTYAQKFQGRVTMTLDTSTSTTYMELSSLRSEDTAVYYCARSLVDYWGQGTLVTVSS VL: DIVMTQTPLSLSVTPGQPASISCKSSQSLLYSDGKTYLSWYLQKPGQPPQLLIYLVSKLDSGVPDRFSGSGSGTDFTLKISRVEAEDVGVYYCWQGIDFHQTFGGGTKVEIK | 0.331 | 142 | – | – | – | –
anti-MS4A4A antibody 4A-308 (antibody, human IgG1, V domains shown, human IgG1/kappa) VH: QVQLVQSGAEVKKPGASVKVSCKASGYTFTNYWMQWVRQAPGQGLEWMGATHPGHGDTRYAQKFQGRVTMTADKSTSTAYMELSSLRSEDTAVYYCAREEVYYGFRSYWYFDVWGRGTLVTVSS VL: DIVMTQSPDSLAVSLGERATINCRASESVDNYGVSFMNWYQQKPGQPPKLLIYGASNQGSGVPDRFSGSGSGTDFTLTISSLQAEDVAVYYCQQSKEVPPTFGGGTKVEIK | 0.12 | 97.2 | – | – | – | –
anti-MS4A4A antibody 4A-301 (antibody, human IgG1, V domains shown, human IgG1/kappa) VH: QVQLVQSGAEVKKPGASVKVSCKASGYTFTNYWMQWVRQAPGQGLEWMGATHPGHGDTRYAQKFQGRVTMTRDTSTSTVYMELSSLRSEDTAVYYCAREEVYYGFRSYWYFDVWGRGTLVTVSS VL: DIVMTQSPDSLAVSLGERATINCRASESVDNYGVSFMNWYQQKPGQPPKLLIYGASNQGSGVPDRFSGSGSGTDFTLTISSLQAEDVAVYYCQQSKEVPPTFGGGTKVEIK | 0.116 | 89.7 | – | – | – | –
anti-MS4A4A antibody 4A-304 (antibody, human IgG1, V domains shown, human IgG1/kappa) VH: QVQLVQSGAEVKKPGASVKVSCKASGYTFTNYWMQWVRQAPGQGLEWMGATHPGHGDTRYAQKFQGRVTMTRDTSTSTVYMELSSLRSEDTAVYYCAREEVYYGFRSYWYFDVWGRGTLVTVSS VL: EIVLTQSPGTLSLSPGERATLSCRASESVDNYGVSFMNWYQQKPGQAPRLLIYGASNQGSGIPDRFSGSGSGTDFTLTISRLEPEDFAVYYCQQSKEVPPTFGGGTKVEIK | 0.11 | 112 | – | – | – | –
anti-MS4A4A antibody 4A-309 (antibody, human IgG1, V domains shown, human IgG1/kappa) VH: QVQLVQSGAEVKKPGASVKVSCKASGYTFTNYWMQWVRQAPGQGLEWMGATHPGHGDTRYAQKFQGRVTLTADKSISTAYMELSRLRSDDTVVYYCAREEVYYGFRSYWYFDVWGRGTLVTVSS VL: EIVLTQSPATLSLSPGERATLSCRASESVDNYGVSFMNWYQQKPGQAPRLLIYGASNQGSGIPARFSGSGSGTDFTLTISSLEPEDFAVYYCQQSKEVPPTFGGGTKVEIK | 0.115 | 131 | – | – | – | –
anti-MS4A4A antibody 4A-352 (antibody, V domains shown, full human IgG) VH: QVQLVQSGSELKKPGASVKVSCKASGYIFTSYGLSWVRQAPGQGLEWMGWINTYSGVPTYAQGFTGRFVFSLDTSVSTAYLQISSLKAEDTAVYYCARTLADYWGQGTLVTVSS VL: DVVMTQSPLSLPVTLGQPASISCKSSRSLLYSGGKTYLSWFQQRPGQSPRRLIYLVSKLDSGVPDRFSGSGSGTDFTLKISRVEAEDVGVYYCWQGIDFHQTFGGGTKVEIK | – | – | 0.985 | 0.655 | 0.885 | 11000
anti-MS4A4A antibody 4A-355 (antibody, V domains shown, full human IgG) VH: QVQLVQSGSELKKPGASVKVSCKASGYIFTSYGLSWVRQAPGQGLEWMGWINTYSGVPTYAQGFTGRFVFSLDTSVSTAYLQISSLKAEDTAVYYCARTLADYWGQGTLVTVSS VL: DVVMTQSPLSLPVTLGQPASISCKSSRSLLYSSGKTYLSWFQQRPGQSPRRLIYLVSKLDSGVPDRFSGSGSGTDFTLKISRVEAEDVGVYYCWQGIDFHQTFGGGTKVEIK | – | – | 0.961 | 0.721 | 0.878 | 13400
anti-MS4A4A antibody 4A-378 (antibody, V domains shown) VH: QVQLVQSGSELKKPGASVKVSCKASGYIFTSYGLSWVRQAPGQGLEWMGWINTYSGVPTYAQGFTGRFVFSLDTSVSTAYLQISSLKAEDTAVYYCARSMADYWGQGTLVTVSS VL: DVVMTQSPLSLPVTLGQPASISCKSSRSLLYSEGKTYLSWFQQRPGQSPRRLIYLVSKLDSGVPDRFSGSGSGTDFTLKISRVEAEDVGVYYCWQGIDFHQTFGGGTKVEIK | – | – | 0.944 | 0.636 | 0.848 | 9910
anti-MS4A4A antibody 4A-356 (antibody, V domains shown, full human IgG) VH: QVQLVQSGSELKKPGASVKVSCKASGYIFTSYGLSWVRQAPGQGLEWMGWINTYSGVPTYAQGFTGRFVFSLDTSVSTAYLQISSLKAEDTAVYYCARTLADYWGQGTLVTVSS VL: DVVMTQSPLSLPVTLGQPASISCKSSRSLLYSQGKTYLSWFQQRPGQSPRRLIYLVSKLDSGVPDRFSGSGSGTDFTLKISRVEAEDVGVYYCWQGIDFHQTFGGGTKVEIK | – | – | 0.927 | 0.746 | 0.85 | 12000
anti-MS4A4A antibody 4A-354 (antibody, V domains shown, full human IgG) VH: QVQLVQSGSELKKPGASVKVSCKASGYIFTSYGLSWVRQAPGQGLEWMGWINTYSGVPTYAQGFTGRFVFSLDTSVSTAYLQISSLKAEDTAVYYCARTLADYWGQGTLVTVSS VL: DVVMTQSPLSLPVTLGQPASISCKSSRSLLYSAGKTYLSWFQQRPGQSPRRLIYLVSKLDSGVPDRFSGSGSGTDFTLKISRVEAEDVGVYYCWQGIDFHQTFGGGTKVEIK | – | – | 0.98 | 0.701 | 0.874 | 13700
anti-MS4A4A antibody 4A-377 (antibody, V domains shown, full human IgG) VH: QVQLVQSGSELKKPGASVKVSCKASGYIFTSYGLSWVRQAPGQGLEWMGWINTYSGVPTYAQGFTGRFVFSLDTSVSTAYLQISSLKAEDTAVYYCARSMADYWGQGTLVTVSS VL: DVVMTQSPLSLPVTLGQPASISCKSSRSLLYSGGKTYLSWFQQRPGQSPRRLIYLVSKLDSGVPDRFSGSGSGTDFTLKISRVEAEDVGVYYCWQGIDFHQTFGGGTKVEIK | – | – | 0.928 | 0.577 | 0.873 | 12200
anti-MS4A4A antibody 4A-379 (antibody, V domains shown) VH: QVQLVQSGSELKKPGASVKVSCKASGYIFTSYGLSWVRQAPGQGLEWMGWINTYSGVPTYAQGFTGRFVFSLDTSVSTAYLQISSLKAEDTAVYYCARSMADYWGQGTLVTVSS VL: DVVMTQSPLSLPVTLGQPASISCKSSRSLLYSAGKTYLSWFQQRPGQSPRRLIYLVSKLDSGVPDRFSGSGSGTDFTLKISRVEAEDVGVYYCWQGIDFHQTFGGGTKVEIK | – | – | 0.893 | 0.543 | 0.812 | 10600
anti-MS4A4A antibody 4A-353 (antibody, V domains shown, full human IgG) VH: QVQLVQSGSELKKPGASVKVSCKASGYIFTSYGLSWVRQAPGQGLEWMGWINTYSGVPTYAQGFTGRFVFSLDTSVSTAYLQISSLKAEDTAVYYCARTLADYWGQGTLVTVSS VL: DVVMTQSPLSLPVTLGQPASISCKSSRSLLYSEGKTYLSWFQQRPGQSPRRLIYLVSKLDSGVPDRFSGSGSGTDFTLKISRVEAEDVGVYYCWQGIDFHQTFGGGTKVEIK | – | – | 0.996 | 0.63 | 0.85 | 10400
